Measurements: patent publication US20150238573A1, “NUTRITIONAL FOOD AND FEED, COMPOSITION, PROCESSING AND METHOD OF USE” (Nutrinia Ltd., priority 2004, published 2015)

How the values were obtained:
[1] = Clinical trials of oral insulin in preterm infants; assay type: in vivo, human
From the text: Clinical trials were done involving supplementation of preterm infant orally-fed with Insulin.

[2] = Stability in liquid infant formula over time (Elisa kit); assay type: physicochemical
From the text: The InsuMeal™ is intended to be consumed immediately after solubilization in the infant formula. […] Furthermore, in order to evaluate the final product homogeneity, at each time interval, sampling was taken at the upper, middle and lower layers of the sampled RTF bottle, as well as after formula liquid stirring.

[3] = Influence on vitamin C in the preterm RTF formula; assay type: physicochemical; settings: 0, 6 and 12 hours from insulin supplementation

Q: Which “time to full enteral feeding” value ([1]; 4 Units per Kg. per day oral for 28 days, control 20 days) does the source give for Insulin here?
A: Its value is ≤ 11 days.

Q: And the Lactase activity ([1]; trial group, control 6.5)?
A: The Lactase activity was 13.3.

Q: And the Gastric residuals ([1]; trial group, control 54)?
A: The Gastric residuals was 22.

Q: And the Insulin concentration ([2]; 0 hour from insulin addition, 100 μU in 60 ml preterm RTF formula)?
A: Its Insulin concentration is 95.43 μU.

Q: And the Insulin concentration ([2]; 3 hour from insulin addition)?
A: The Insulin concentration was 105.47 μU.

Q: And the Insulin concentration ([2]; 6 hour from insulin addition)?
A: The Insulin concentration was 111.59 μU.

Q: And the Insulin concentration ([2]; 9 hour from insulin addition)?
A: Its Insulin concentration is 93.34 μU.

Q: And the Insulin concentration ([2]; 12 hour from insulin addition)?
A: Its Insulin concentration is 99.55 μU.

Q: And the Insulin concentration ([2]; 15 hour from insulin addition)?
A: The Insulin concentration was 105.38 μU.

Q: And the Insulin concentration ([2]; 18 hour from insulin addition)?
A: The Insulin concentration was 96.74 μU.

Q: And the Insulin concentration ([2]; 21 hour from insulin addition)?
A: The Insulin concentration was 93.78 μU.

Q: And the Insulin concentration ([2]; 24 hour from insulin addition)?
A: Its Insulin concentration is 104.5 μU.

Q: What about the “time highly stable after addition to liquid infant formula” value ([2]; liquid infant formula) of the same substance?
A: Its value is “at least 24 hr”.

Q: What about the “vitamin C concentration in formula after insulin supplementation” value [3] of the same substance?
A: Its value is “No significant differences”.
